Biological target: biotinylated human HHAT-Avi-1D4 (pHR-CMV-TetO2-HHAT-wildtype-Avi-1D4) (Homo sapiens, natural variant VAR_024743, strain, biotin on the biotinylation tag)
Assay: cell-based or functional assay

biotinylated human HHAT-Avi-1D4 (pHR-CMV-TetO2-HHAT-wildtype-Avi-1D4) (Homo sapiens, natural variant VAR_024743, strain, biotin on the biotinylation tag), sequence (Q5VTY9 other isoform, or with tags, fused parts or gaps, change not shown): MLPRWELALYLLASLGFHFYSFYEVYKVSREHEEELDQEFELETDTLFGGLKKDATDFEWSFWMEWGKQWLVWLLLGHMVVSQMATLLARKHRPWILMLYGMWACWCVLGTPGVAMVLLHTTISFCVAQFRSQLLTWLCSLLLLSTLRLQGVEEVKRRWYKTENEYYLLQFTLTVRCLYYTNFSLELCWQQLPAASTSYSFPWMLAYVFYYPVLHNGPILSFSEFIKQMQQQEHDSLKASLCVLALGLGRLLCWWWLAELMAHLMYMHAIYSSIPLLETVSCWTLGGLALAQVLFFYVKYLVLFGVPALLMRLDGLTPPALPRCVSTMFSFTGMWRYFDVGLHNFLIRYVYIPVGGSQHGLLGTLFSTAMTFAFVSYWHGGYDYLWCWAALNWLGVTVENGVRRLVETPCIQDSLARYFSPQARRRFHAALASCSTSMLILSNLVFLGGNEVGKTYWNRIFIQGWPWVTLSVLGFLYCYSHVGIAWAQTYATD

B1: nanobody NB169 (VHH)
VHH: QVQLVESGGGLVQAGGSLRLSCAASGSIRSINGMGWYRQAPGKQRELVAALSSGGSTNYADSVKGRFTISRDNAKKTVNLQMNSLKPEDTAVYYCNARRGGRSWSEGPPYDYWGQGTQVTVSS
IC50 of inhibition of HHAT-catalysed palmitoyl transfer to a SHH peptide (acyl-cLIP assay); blocks HHAT with SHH: 1.3 nM

B2: nanobody NB177 (VHH)
VHH: QVQLVESGGGLVQAGGSLRLSCTASGAIFSTYDVSWYRQAPEKPRELVAIITRGGNTHYADTVKGRFTISRDNAKNTVYLQMNSLKPEDTAVYYCHAGVQGAMLGPRNYWGQGTQVTVSS
IC50 of inhibition of HHAT-catalysed palmitoyl transfer to a SHH peptide (acyl-cLIP assay); blocks HHAT with SHH: 0.9 nM
